Assay results as given in patent US9567577B2, “Expression vector comprising a polynucleotide encoding a modified glutamine synthetase and a method for preparing a target protein employing the same” (ARES TRADING S.A., priority 2012, dated 2017).

Tested on: CHO K-1 cells
Experiment: TNFR-Fc expression level by ELISA of culture broth of CHO K-1 cells transfected with the expression vectors
Assay type: cell-based
Conditions: inferred from TNFR-Fc expression under MSX
Experimental: In order to compare the productivity of TNFR-Fc fusion protein between the GS and DHFR gene expression systems, each of the expression vectors constructed in Example 4 was introduced into CHO K-1 cells so as to prepare each transformant.
In detail, CHO K-1 cells were cultured in a DMEM/F12 medium supplemented with 10% FBS, and 3 to 4×10^5 cells/well were inoculated into a 6 well-plate, followed by cultivation overnight. When the cells reached 80 to 90% confluence, each of the expression vectors was introduced thereto.
To achieve this, 4 μg of each of the expression vectors constructed in Example 4 and 250 μl of Opti-MEM were mixed with each other, and separately, 10 μl of Lipofectamine 2000 (Invitrogen) and 250 μl of Opti-MEM were mixed with each other. Then, each mixture was left at room temperature for 5 minutes. Subsequently, the mixtures were mixed with each other, and left at room temperature for 20 minutes.
Thereafter, the culture medium in the 6-well plate was replaced with 2 ml of Opti-MEM I media, and 500 μl of the final mixture was added to each well of the 6-well plate, followed by cultivation at 37° C. for 4 to 6 hours. The medium was replaced with the original culture medium (DMEM/F12 medium supplemented with 10% FBS), followed by further cultivation overnight. […]

B1: modified GS protein: hamster glutamine synthetase (SEQ ID NO. 4) with glycine at position 299 substituted with arginine (protein, listed as Cricetulus longicaudatus)
chain: MATSASSHLNKNIKQMYLCLPQGEKVQAMYIWVDGTGEGLRCKTRTLDCEPKCVEELPEWNFDGSSTFQSEGSNSDMYLSPVAMFRDPFRRDPNKLVFCEVFKYNRKPAETNLRHSCKRIMDMVSNQHPWFGMEQEYTLMGTDGHPFGWPSNGFPGPQGPYYCGVGADKAYGRDIVEAHYRACLYAGVKITGTNAEVMPAQWEFQIGPCEGIRMGDHLWVARFILHRVCEDFGVIATFDPKPIPGNWNGAGCHTNFSTKAMREENGLKHIEEAIEKLSKRHRYHIRAYDPKGGLDNARRLTGFHETSNINDFSAGVANRSASIRIPRTVGQEKKGYFEDRRPSANCDPFAVTEAIVRTCLLNETGDEPFQYKN
sensitivity to GS inhibitors compared with wildtype GS protein: enhanced sensitivity
